B1: TPR t1 (parent)
chain: GACCAAUCUGCCCUCAGAGCUCGAGAACAUCUUCGGAUGCAGAGGAGGCAGGCUUCGGUGGCGCGAUAGCGCCAACGUCCUCAACCUCCAAUGCAUCCCACCACAUGAUGAUGCCUGAAGAGCCUUGGUUUUUUG

Variants of: B1
Assay: polymerase ribozyme fitness, log enrichment relative to wild type (log ratio); higher = more active; in vitro selection for triplet polymerase activity
Summary of the method: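 Only genotypes with ≥10 input reads and ≥1 read per output were kept after Illumina sequencing of input and output libraries. These libraries were PCR-built, transcribed mutants of each subunit of a heterodimeric triplet polymerase ribozyme, each put through one triplicate in vitro selection round with frozen incubation at −7 °C, gel excision of extended constructs, streptavidin-bead capture and RT-PCR. Fitness is a logarithmic ratio of genotype enrichment to wild-type enrichment, from inverse-variance-weighted replicate averages, with the logarithm in base 2.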

In order of rising “polymerase ribozyme fitness (log ratio)” value:
1. GACCAAUCUGCCCUCAGAGCUCGAGAACAUCUUCGGAUGCAGAGGAGGCAUGCUUCGGUGGAGCGAUAGCGCCAACGUCCUCAACCUCCAAUGCAUCCCACCACAUGAUCAUGCCUGAAGAGCCUUGGUUUUUUG [G51U C62A G110C]  -8.04
2. GACCAAUCUGCCCUCAGAGCUCGAGAACAUCUUCGGAUGCAGAGGAGGCAUGCUUCGGUGGCGCGAUAGCACCAACGUCCUCAAACUCCAAUGCAUCCCAUCACAUGAUGAUGCCUGAAGAGCCUUGGUUUUUUG [G51U G71A C85A C101U]  -7.55
3. GACCAAUCUGCCCUCAGAGCUCGAGAACAUCUUCGGAUGCAGAGGAGGCAUGCUUAGGUGGCCCGAUAGCGCCAACGUCCUCAACCUCCAAUGCAUCUUACCACAUGAUGAUGCCUGAAGAGCAUUGGUUGUUUG [G51U C56A G63C C98U C99U C124A U131G]  -7.53
4. GACCAAUCUGCCCUCAGAGCUCGAGAACAUCUUCGGAUGCAGAGGAGGCACGCUUCGGUGUCGCGAUAGCGCCCACGUCCUCAACCUCCAAUGCAUCCCACCACAUGAUGAUGACUAAAGAGCCUUGGUUUUUUG [G51C G61U A74C C114A G117A]  -7.43
5. GACCAAUCUGCCCUCAGAGCUCGAGAACAUCUUCGGAUGCAGAGGAGGCAUGCUUCGGUGGCGCGAUAGCCCCAACGCCCUCAACCUCCAAUGCAUCCCACCACAUGAUGAUGACUGAAGAGCCUUGGUUUUUUG [G51U G71C U78C C114A]  -7.09
6. GACCAAUCUGCCCUCAGAGCUCGAGAACAUCUUCGGAUGCAGAGGAGGCAUGCUUCGUUGGCACGAUAGCGCCAACGUCCUCAACCUCCAAUGCAUCCCACCACAUGAUGAUGCCUCAAGAGCCUUGGUUUUUUG [G51U G58U G63A G117C]  -6.73
7. GACCAAUCUGCCCUCAGAGCUCGAGAACAUCUUCGGAUGCAGAGGAGGCAAGCUGCGGUGGCGCGUUAGCGCCAACGUCCUCAACCUCCAAUGCAUCCCACCACAUGAUGAAGCCUGAAGAGCCUUGGUUUUUUG [G51A U55G A66U U112A]  -6.46
8. GACCAAUCUGCCCUCAGAGCUCGAGAACAUCUUCGGAUGCAGAGGAGGCACGCUUAGGUGGCGCGAUAGCGCCAACGUCCUCAACCUCCAAUACAUCCCACCACAUGAUGAUGCCUGAAGAGCCUUGGUUUUUUG [G51C C56A G93A]  -6.3
9. GACCAAUCUGCCCUCAGAGCUCGAGAACAUCUUCGGAUGCAGAGGAGGCAUGCUUCGGUGGCGCGUUAGCGCCAACGUCCUCAACCUCCAAUGCAUCCCACCACAUGAUGCUGCCUGAAGAGCCUUGGUUUUUUG [G51U A66U A111C]  -6.21
10. GACCAAUCUGCCCUCAGAGCUCGAGAACAUCUUCGGAUGCAGAGGAGGCAUGCUUCGGUGGCACGAUAGCGCCAACGUCCUCAACCUCCAAUGCAUCCCACCACAUGAUGAUGCCUUAAGAGCCUUGGUUUUUUG [G51U G63A G117U]  -5.99
11. GACCAAUCUGCCCUCAGAGCUCGAGAACAUCUUCGGAUGCAGAGGAGGCACGUUUUGGUGGCGCGAUAGCGCCAACGUCCUCAACCUCGAAUGCAUCCCACCACAUGAUGAGGCCUGAAGAGCCUUGGUUUUUUG [G51C C53U C56U C89G U112G]  -5.96
12. GACCAAUCUGCCCUCAGAGCUCGAGAACAUCUUCGGAUGCAGAGGAGGCAAGCUUCGGUGGCGCGAUAGCGCCAACGUCCUCAACCUCCAAUGCAUCCCACCACAUGAUGAUGCCUGAAGAGCCUUGAUUUUUUG [G51A G128A]  -5.75
13. GACCAAUCUGCCCUCAGAGCUCGAGAACAUCUUCGGAUGCAGAGGAGGCAUGCUUCGGUGGUGCGAUAGCGCCAACGUCCUCAACCUCCAAUGCAUCCCACCACAUGAUGAGGCCUGAAGAGCCUUGGUUUUUUG [G51U C62U U112G]  -5.35
14. GACCAAUCUGCCCUCAGAGCUCGAGAACAUCUUCGGAUGCAGAGGAGGCAUGCUUCGGUGGGGCGAUAGCGCCAACGUCCUCAACCUCCAAUGCAUCCCACCACAUGAUGAUGCCUGAAGAGCGUUGGUUUUUUG [G51U C62G C124G]  -5.32
15. GACCAAUCUGCCCUCAGAGCUCGAGAACAUCUUCGGAUGCAGAGGAGGCACGCUUUGGUGGCGCGAUAGCGCCAACGUCCUCAACCUCCAAUGCAUCCCACCACAUGAUAAUGCCUGAAGAGCCUUGGUUUUUUG [G51C C56U G110A]  -5.23
16. GACCAAUCUGCCCUCAGAGCUCGAGAACAUCUUCGGAUGCAGAGGAGGCAUGCUUCGGUGGCGUGAUAGCGCCAACGUCCUCAACCUCCAAUGCAUCCCACCACAUGAUGAUGCCUAAAGAGCCUUGGUUUAUUG [G51U C64U G117A U132A]  -5.22
17. GACCAAUCUGCCCUCAGAGCUCGAGAACAUCUUCGGAUGCAGAGGAGGCAUGCUUCGGUGGCGCGAUAGCGCCAACGUCCUCAACCUCCAAUGCAUCCCACCACAUGAUGAUGUCUGAAGAGCCUUGGUUUUUUG [G51U C114U]  -5.14
18. GACCAAUCUGCCCUCAGAGCUCGAGAACAUCUUCGGAUGCAGAGGAGGCAUGCUUCGGUGGCGCGAUAGCGCCAACGUCCUCAACCUCCAAUGCAUCCCACCACAUGAUGAUGCCUAAAGAGCCUUGGUUUUUUG [G51U G117A]  -5.11
19. GACCAAUCUGCCCUCAGAGCUCGAGAACAUCUUCGGAUGCAGAGGAGGCACGCUUCGGUGGCGCGAUAGCGCCAACGCCCUCAACCUCCAAUGCAUCCCACCACAUGAUGAUGCCUGAAGAGCCUUGGUUUUUUG [G51C U78C]  -4.89
20. GACCAAUCUGCCCUCAGAGCUCGAGAACAUCUUCGGAUGCAGAGGAGGCACGCUUCGGUGGCGCGAUAGCGCCAACGACCUCAACCUCCAAUGCAUCCCACCACAAGAUGAUGCCUGAAGAGCCUUGGUUUUUUG [G51C U78A U106A]  -4.81
21. GACCAAUCUGCCCUCAGAGCUCGAGAACAUCUUCGGAUGCAGAGGAGGCACGCUUCGGUGGCGCGAUAGCGCCAACGUCCUCAACCUCCAAUGCAUCCCACCACAUGAUGGUGCCUGAAGAGCCUUGGUUUUUUG [G51C A111G]  -4.71
22. GACCAAUCUGCCCUCAGAGCUCGAGAACAUCUUCGGAUGCAGAGGAGGCACGCUUCGGUCGCGCGAUAGCGCCAACGUCCUCAACCUCCAAUGCAUCCCACCACAUGAUGAUGCCUGAAGAGCCUUGGUUUUUUG [G51C G60C]  -4.64
23. GACCAAUCUGCCCUCAGAGCUCGAGAACAUCUUCGGAUGCAGAGGAGGCAAGCUUCGGUGGCGCGAUAGCGCCAACGUCCUCAACCUCCAAUGCAUCCCACCACAUGAUGAUGCCUGAAGAACCUUGGUUUUUUU [G51A G122A G135U]  -4.44
24. GACCAAUCUGCCCUCAGAGCUCGAGAACAUCUUCGGAUGCAGAGGAGGCAUGCUUCGGUGGCGCGAUAGCGCCAACGUCCUCAACCUCCAAUGCAUCCCACCACAUGAUGAUGCCUGAAGAGCCUUGGUUUUUUU [G51U G135U]  -4.28
25. GACCAAUCUGCCCUCAGAGCUCGAGAACAUCUUCGGAUGCAGAGGAGGCACGCUUCGGUGGCGCGAUAGCGCGAACGUCCUCAACCUCCAAUGCAUCCCACCACAUGAUGAUGCCUGAAGAGCCUUGGUUUUUUG [G51C C73G]  -4.22
26. GACCAAUCUGCCCUCAGAGCUCGAGAACAUCUUCGGAUGCAGAGGAGGCAUGCUUCGGUGGCGCGAUAGCGCCAACGUCCUCAACCUCCAAUGGAUCCCACCACAUGAUGAUGCCUGAAGAGCCUUGGUUUUUUG [G51U C94G]  -4.19
27. GACCAAUCUGCCCUCAGAGCUCGAGAACAUCUUCGGAUGCAGAGGAGGCAUGCUUCGGUGGCGCGAUAGCGCCAACGUCCUCAACCUCCAAUACAUCCCACCACAUGAUGAUGCCUGAAGAGCCUUGGUUUUUUG [G51U G93A]  -4.12
28. GACCAAUCUGCCCUCAGAGCUCGAGAACAUCUUCGGAUGCAGAGGAGGCAUGCUUCGGUGGCGCGAUAGCGCCAACGUCCUCAACCUCCAAUGCAUCCCAUCACAUGAUGAUGCCUGAAGAGCCUUGGUUUUUUG [G51U C101U]  -4.07
29. GACCAAUCUGCCCUCAGAGCUCGAGAACAUCUUCGGAUGCAGAGGAGGCAAGCUUCGGUGGCGCGAUAGCGCCAACGUCCUCAACCUCCAAUGCAGCCCACCACAUGAUGAUGCCUGAAGAGCCUUGGUUUUUUG [G51A U96G]  -3.85
30. GACCAAUCUGCCCUCAGAGCUCGAGAACAUCUUCGGAUGCAGAGGAGGCAUGCUUCGGUGGCGCGAUAGCGCCAACGUCCUCAACCUCCAAUGCAUCCCACCACAUGAUGAUGCCUGAAGAACCUUGGUUUUUUG [G51U G122A]  -3.78
31. GACCAAUCUGCCCUCAGAGCUCGAGAACAUCUUCGGAUGCAGAGGAGGCACGCUUCGGUGGCGCGAUAGCGCCAACGUUCUCAACCUCCAAUGCAUCCCACCACAUGAUGAUGCCUGAAGAGCCUUGGUUUUUUG [G51C C79U]  -3.54
32. GACCAAUCUGCCCUCAGAGCUCGAGAACAUCUUCGGAUGCAGAGGAGGCAUUCUUAGGUGGCGCGAUAGCGCCAACGACCUCAACCUCCAAUGCAUCCCACCACAUGAUGAUGCCUGAAGAGCCUUGGUUUUUUG [G51U G52U C56A U78A]  -3.39
33. GACCAAUCUGCCCUCAGAGCUCGAGAACAUCUUCGGAUGCAGAGGAGGCAUCCUUCGGUGGCGCGAUAGCGCCAACGUCUUCAACCUCCAAUGCAUCCCACCACAUGAUGAUGCCUGAAGAGCCUUGGUUUUUUG [G51U G52C C80U]  -3.13
34. GACCAAUCUGCCCUCAGAGCUCGAGAACAUCUUCGGAUGCAGAGGAGGCAUGUUUCGGUGUCGCGAUAGCGCCAACGUCCUCAACCUCCAAUGCAUCCCACCACAUGAUGAUGCCUGAAGAGCCUUGGUAUUUUG [G51U C53U G61U U130A]  -3.08
35. GACCAAUCUGCCCUCAGAGCUCGAGAACAUCUUCGGAUGCAGAGGAGGCACCCUUCGGUGGCGCGAUAGCGCCAACGUCCUCAACCUCCAAUGCAUCCCACCACAUGAUGAUGCCUGAAGAGCCUUGGUUUUUUG [G51C G52C]  -2.79
36. GACCAAUCUGCCCUCAGAGCUCGAGAACAUCUUCGGAUGCAGAGGAGGCAUGCUUCGGUGGCGCGAUAGCGCCAACGUACUCAACCCCCAAUGCAUCCCACCACAAGAUGAUGCCUGAAGAGCCUUGGUUUUUUG [G51U C79A U87C U106A]  -2.68
37. GACCAAUCUGCCCUCAGAGCUCGAGAACAUCUUCGGAUGCAGAGGAGGCAUGCUUCGGUGGCGCGAUAGCGCCAACGUCCUCAACCUCCAAUGCAUCCCACCACAUGAUGAUGCCUGAAAAGCCUUGGUUUUUUG [G51U G120A]  -2.64
38. GACCAAUCUGCCCUCAGAGCUCGAGAACAUCUUCGGAUGCAGAGGAGGCACGCUUCGGUGGCGCGAUAGCGCCAACGUCCUCAACCUCCAAUGCAUCCCACCACAUGAUGAUGCCUGAACAGCCUUGGUUUUUUG [G51C G120C]  -2.56
39. GACCAAUCUGCCCUCAGAGCUCGAGAACAUCUUCGGAUGCAGAGGAGGCAUGCUUCGGUGGCGCGAUAGCGCCAACGUCCUUAAUCUCCAAUGUAUCCCACCACAUGAUGAUGCCUGAAGAGCCUUGGUUUUUUG [G51U C82U C85U C94U]  -2.49
40. GACCAAUCUGCCCUCAGAGCUCGAGAACAUCUUCGGAUGCAGAGGAGGCAUGUUUCGGUGGCGCGAUAGCGCCAACGUCCUCAACCUGCAAUGCAUCCCACCACAUGAUGAUGCCUGAAGAGCCUUGGUUUUUUG [G51U C53U C88G]  -2.23
41. GACCAAUCUGCCCUCAGAGCUCGAGAACAUCUUCGGAUGCAGAGGAGGCAUGCUUCGGUGGCGCGAUAGCGCCAACCUCCUCAACCUCCAAUGCAUCCCACCACAUGAUGAUGCCUGAAGAGCCUUGGUUUUUUG [G51U G77C]  -1.93
42. GACCAAUCUGCCCUCAGAGCUCGAGAACAUCUUCGGAUGCAGAGGAGGCAUGCUUCGGUGGCGCGAUAUCGCCAACGUCCUCAACCUACAAUGCAUCCCACCAUAUGAUGAUGCCUGAAGAGUCUUGGUUUUUUG [G51U G69U C88A C104U C123U]  -0.711
